The record followed here is patent publication US20040151731A1.

For this assay, the target named is HLA-A, B, C on presenting PBL. As to the kind of experiment: cell-based or functional assay.

“W6/32 (anti-HLA-A, B, C) monoclonal antibody” had a reduction in γIFN secretion of Long Term AAA cells with PBL presenting cells and collagen of 74%.
